Assay [1] addresses human TIM-3-Fc fusion protein (human) (UniProt Q8TDQ0). Nature of the assay: other; competition with SULFO-TAG galectin-9, MSD.
For assay [2], the target named is cynomolgus monkey TIM-3 expressed on 300.19 cells (cynomolgus monkey). Nature of the assay: flow cytometry on cells; 300.19 cells expressing human or cynomolgus TIM-3 incubated with titrated sabatolimab at 4°C for 4 hours; PE anti-hIgG secondary; Kd from best-fit binding curves (GraphPad Prism). A general note: Flow cytometry measures light scatter and fluorescence of single cells or particles in a stream.

Assay [3] addresses T1, human TIM-3 expressed on 300.19 cells (human, UniProt Q8TDQ0 22-301).
T1 construct: TIM-3, human, expressed on the surface of 300.19 cells; Also used for the functional rows on cells that express human TIM-3 (Raji hTIM-3 o.e., HNT-34, dendritic cells); source: 300.19 cells engineered to express human TIM-3 (lab of Gordon Freeman)
The assay is described as above. As to conditions: one partner purified.

Assay [4] addresses T2, recombinant human TIM-3/His (human, UniProt Q8TDQ0 22-202).
T2 construct: T-cell immunoglobulin domain and mucin domain-3 (TIM-3), human; Probably the extracellular domain (surmised); also called human recombinant TIM-3; source: bought: Sino Biological Inc
Nature of the assay: SPR; Biacore; sabatolimab captured (~50 RU) by a human Fab capture antibody amine-coupled on a CM5 chip; TIM-3/His as analyte, 90 nM diluted 1:3, seven concentrations, HBS-EP+ buffer; 1:1 binding model, double reference subtraction. The following applies: both partners purified. For orientation: In SPR one partner is held on a chip, and binding of the other changes the refractive index at the surface.

Where “and” joins values, the source holds several entries; their conditions need not be identical. Identical values can stand only once.

In the case of sabatolimab Fab'2, the IC50 (as a rule, the midpoint of a concentration-inhibition curve) in assay [1] was 9.81 nM.

B1: Sabatolimab, humanized anti-TIM-3 monoclonal antibody (hIgG4, S228P) (antibody, V domains shown)
VH: QVQLVQSGAEVKKPGSSVKVSCKASGYTFTSYNMHWVRQAPGQGLEWMGDIYPGNGDTSYNQKFKGRVTITADKSTSTVYMELSSLRSEDTAVYYCARVGGAFPMDYWGQGTTVTVSS
VL: AIQLTQSPSSLSASVGDRVTITCRASESVEYYGTSLMQWYQQKPGKAPKLLIYAASNVESGVPSRFSGSGSGTDFTLTISSLQPEDFATYFCQQSRKDPSTFGGGTKVEIKR
notes: whole heavy chain as printed; whole kappa light chain as printed; IgG4/kappa; humanized from the murine monoclonal antibody 22C1; also called MBG453; sabatolimab whole antibody; source: CHO cells, transiently produced (told of the ten selected humanized clones)
Consider B1, for which the Kd (in general, a measure of binding affinity in units of concentration) was 0.9 nM in assay [2]; 0.5 ± 0.1 nM in assay [3]; 0.176 nM and 0.162 nM and 0.163 nM in assay [4].

The values are drawn from PMC9525012, “Characterization of sabatolimab, a novel immunotherapy with immuno-myeloid activity directed against TIM-3 receptor” (Immunotherapy Advances, 2022).
